Assay in all cases: cell-based or functional assay
Assay [1] addresses SARS-CoV-2 Omicron variant BA.2.75.2 spike protein (SARS-CoV-2).
In assay [2] the target is SARS-CoV-2 Omicron variant BQ.1.1 spike protein (SARS-CoV-2).
Assay [3] deals with SARS-CoV-2 Omicron variant XBB spike protein (SARS-CoV-2).
For assay [4], the target named is SARS-CoV-2 spike (S) protein, Omicron sublineage BA.1.1 (R346K) (SARS-CoV-2) (UniProt P0DTC2).
Assay [5] deals with SARS-CoV-2 spike (S) protein, Omicron sublineage BA.4.6 (R346T, F486V) (SARS-CoV-2) (UniProt P0DTC2).
The target of assay [6] is SARS-CoV-2 spike (S) protein, Omicron sublineage BA.4.7 (R346S, F486V) (SARS-CoV-2) (UniProt P0DTC2).
Assay [7] has as its target SARS-CoV-2 spike (S) protein, Omicron sublineage BF.7 (R346T, F486V) (SARS-CoV-2) (UniProt P0DTC2).
Assay [8] has as its target SARS-CoV-2 spike (S) protein, Omicron sublineage BQ 1.1 (R346T, K444T, F486V) (SARS-CoV-2) (UniProt P0DTC2).
For assay [9], the target named is SARS-CoV-2 Omicron BA.4.6 spike protein (R346T, F486V) (SARS-CoV-2) (UniProt P0DTC2).
Assay [10] addresses SARS-CoV-2 spike (S) protein, C.1.2 variant (SARS-CoV-2) (UniProt P0DTC2).
For assay [11], the target named is SARS-CoV-2 spike (S) protein, Iota variant (B.1.526) (SARS-CoV-2) (UniProt P0DTC2).
The target of assay [12] is SARS-CoV-2 spike (S) protein, Lambda variant (C.37) (SARS-CoV-2) (UniProt P0DTC2).
Assay [13] has as its target SARS-CoV-2 spike (S) protein, Mu variant (B.1.621) (SARS-CoV-2) (UniProt P0DTC2).
For assay [14], the target named is SARS-CoV-2 spike protein, Alpha variant (B.1.1.7) (SARS-CoV-2).
Assay [15] has as its target SARS-CoV-2 spike protein, Beta variant 1 (B.1.351.v1) (SARS-CoV-2).
The target of assay [16] is SARS-CoV-2 spike protein, Delta variant (B.1.617.2) (SARS-CoV-2).
Assay [17] has as its target SARS-CoV-2 spike protein, Gamma variant (P.1) (SARS-CoV-2).
The target in assay [18] is SARS-CoV-2 spike protein, Omicron variant BA.1 (SARS-CoV-2) (UniProt P0DTC2).
The target of assay [19] is SARS-CoV-2 spike protein, Omicron variant BA.2 (SARS-CoV-2) (UniProt P0DTC2).
For assay [20], the target named is SARS-CoV-2 spike protein, Omicron variant BA.2.12.1 (SARS-CoV-2) (UniProt P0DTC2).
Assay [21] has as its target SARS-CoV-2 spike protein, Omicron variant BA1.1.529 (SARS-CoV-2) (UniProt P0DTC2).

A value given as a limit tells only on which side of the number the result lay.

A19-46.1 (antibody), sequence (VH): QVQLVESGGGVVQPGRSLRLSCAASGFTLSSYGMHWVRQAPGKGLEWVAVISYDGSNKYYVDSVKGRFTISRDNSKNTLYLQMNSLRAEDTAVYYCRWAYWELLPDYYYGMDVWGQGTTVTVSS
A19-46.1 (antibody), sequence (VL): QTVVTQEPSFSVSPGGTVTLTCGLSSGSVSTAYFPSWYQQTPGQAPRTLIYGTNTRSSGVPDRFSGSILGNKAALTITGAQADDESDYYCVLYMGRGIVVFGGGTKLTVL

For the substance bebtelovimab (LY1404) (antibody), the IC50, pseudovirus neutralization is 5.67 ng/mL in assay [1]; over 10000 ng/mL in assay [2]; over 10000 ng/mL in assay [3]; 26.4 nM in [4]; 22.3 nM in [5]; 5.9 nM in [6]. The IC50, pseudovirus neutralization was 16.9 nM in assay [7] and over 10 µM in assay [8]. In addition, the IC80, pseudovirus neutralization in assay [1] is 20.7 ng/mL; in assay [2], over 10000 ng/mL; in assay [3] it was over 10000 ng/mL; in assay [4] it was 65.1 nM; in assay [5], 25.4 nM; in assay [6], 16.1 nM. For the same substance, the IC80, pseudovirus neutralization in assay [7] is 25.2 nM; in [8], over 10 µM.
Regarding A19-46.1 (antibody), the IC50, pseudovirus neutralization in assay [9] is over 10 µM; in assay [14] it was 0.19 nM; in assay [15], 0.807 nM; in assay [16] it was over 66.7 nM; in [17], 0.26 nM; in assay [18] it was 0.958 nM. The IC50, pseudovirus neutralization in assay [19] was 0.69 nM; in assay [20], over 66.7 nM; in assay [21] it was 1.84 nM. Moreover, the IC80, pseudovirus neutralization in assay [9] was over 10 µM; in assay [14], 0.486 nM; in assay [15], 2.07 nM; in [16], over 66.7 nM; in assay [17], 0.7 nM; in [18] it was 2.28 nM. For the same substance, the IC80, pseudovirus neutralization is 2.23 nM in [19], over 66.7 nM in assay [20] and 2.84 nM in assay [21]. Besides, the pseudovirus neutralization IC50 (nM (inferred)) is 11.6 in assay [10], 0.803 in [11], over 66.7 in assay [12] and 1.34 in [13]. Besides, the pseudovirus neutralization IC80 (nM (inferred)) in assay [10] was 21; in assay [11] it was 1.88; in assay [12], over 66.7; in assay [13], 3.81.

Source of the values: US20240109955A1.
